Measured values from US10766952B2, “Methods for reducing migraine frequency in a subject in need thereof” (Beth Israel Deaconess Medical Center, Inc., priority 2017, dated 2020).
Ends that are not written are not given here.

tested on: naïve central trigeminovascular neurons; assay: not given; conditions: Storer et al., 2004; cited from earlier work

Molecule	responses to electrical stimulation of the superior sagittal sinus and microiontophoretic administration of L-glutamate
NCCCC[C@H](NC(=O)[C@@H](Cc1cc(Br)c(O)c(Br)c1)NC(=O)N1CCC(N2Cc3ccccc3NC2=O)CC1)C(=O)N1CCN(c2ccncc2)CC1 [BIBN4096BS]	inhibits

biological target: T1, binding of G1 Fab to human α-CGRP on the chip (Homo sapiens); assay: Epitope mapping of antibody G1 by peptide competition using Biacore; conditions: 10 μM peptide in 50 nM G1 Fab; FIG. 6
T1 construct: made in house; host or cells: E. coli (Fab); chip peptide purchased
T1 sequence (P01859 with tags, fused parts or gaps, other chains not shown): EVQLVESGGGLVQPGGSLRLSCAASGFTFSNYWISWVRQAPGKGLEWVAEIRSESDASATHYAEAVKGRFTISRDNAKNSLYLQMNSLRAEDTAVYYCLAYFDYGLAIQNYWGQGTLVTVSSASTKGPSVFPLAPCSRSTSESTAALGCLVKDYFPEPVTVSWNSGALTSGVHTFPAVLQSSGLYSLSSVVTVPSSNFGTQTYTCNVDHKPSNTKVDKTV
Excerpt: N-biotinylated human α-CGRP was captured on SA sensor chip. […] Y axis represents percentage of binding blocked by the presence of the competing peptide compared with the binding in the absence of the competing peptide.
Human α-CGRP was purchased as an N-biotinylated version to enable its high-affinity capture via SA sensor chips. […] All these peptides are amidated at the C-terminus.

Molecule	percentage of binding of G1 Fab to human α-CGRP blocked by competing peptide
calcitonin: SEQ ID NO: 45, CGNLSTCMLGTYTQDFNKFHTFPQTAIGVGAP	did not compete
1-36: human α-CGRP fragment, SEQ ID NO: 38, ACDTATCVTHRLAGLLSRSGGVVKNNFVPTNVGSKA (ACDTATCVTHRLAGLLSRSGGVVKNNFVPTNVGSKA-OH; cysteine pairing not given here)	about 40%

Other lines, results leading:

percentage of binding of G1 Fab to human α-CGRP blocked by competing peptide	Molecule
did not compete	1-19: human α-CGRP fragment, SEQ ID NO: 39, ACDTATCVTHRLAGLLSRS (ACDTATCVTHRLAGLLSRS-OH; cysteine pairing not given here)
did not compete	human amylin: SEQ ID NO: 46, KCNTATCATQRLANFLVHSSNNFGAILSSTNVGSNTY
did not compete	1-13: human α-CGRP fragment, SEQ ID NO: 40, ACDTATCVTHRLA (ACDTATCVTHRLA-OH; cysteine pairing not given here)
did not compete	adrenomedullin: SEQ ID NO: 47, YRQSMNNFQGLRSFGCRFGTCTVQKLAHQIYQFTDKDKDNVAPRSKISPQGY
did not compete	19-36: human α-CGRP fragment, SEQ ID NO: 37, SGGVVKNNFVPTNVGSKA (SGGVVKNNFVPTNVGSKA-OH)

tested on: CGRP activity (skin blood flow after saphenous nerve stimulation); assay: Skin vasodilatation induced by stimulation of rat saphenous nerve; format: in vivo; conditions: 400 nmol/kg i.v., 3-5 minutes before stimulation; FIG. 2A, 2B
Procedure: To test antagonist activity of anti-CGRP antibodies, effect of the antibodies on skin vasodilatation by stimulation of rat saphenous nerve was tested using a rat model described previously. Escott et al., Br. J. Pharmacol. 110:772-776, 1993. In this rat model, electrical stimulation of saphenous nerve induces release of CGRP from nerve endings, resulting in an increase in skin blood flow. Blood flow in the foot skin of male Sprague Dawley rats (170-300 g, from Charles River Hollister) was measured after saphenous nerve stimulation. Rats were maintained under anesthesia with 2% isoflurane. Bretylium tosylate (30 mg/kg, administered i.v.) was given at the beginning of the experiment to minimize vasoconstriction due to the concomitant stimulation of sympathetic fibers of the saphenous nerve. Body temperature was maintained at 37° C. by the use of a rectal probe thermostatically connected to a temperature controlled heating pad. […]
For experiments shown in FIGS. […] Skin blood flow, measured as blood cell flux, was monitored with a laser Doppler flow meter. […]
For experiments shown in FIGS. 4A and 4B, saphenous nerve was exposed surgically before antibody administration. […] Skin blood flow, measured as blood cell flux, was monitored with a laser Doppler flow meter. […]

Molecule	blood flow increase stimulated by electronic pulses on saphenous nerve
CGRP 8-37: positive control compound (vasodilatation antagonist)	inhibited
